{"source": "patent US20220315645A1", "target": "HBsAg on HBV virions (HBV from HepDE19 cell supernatant) (Hepatitis B virus)", "assay": "cell-based or functional assay"}
{"substance": "libivirumab (antibody)", "values": [{"measurement": "IC50, in vitro HBV neutralization on HepG2-NTCP cells (ELISA read-out)", "value": 0.035, "unit": "µg/mL"}, {"measurement": "IC50, in vitro HBV neutralization on HepG2-NTCP cells (HBcAg immunofluorescence read-out)", "value": 0.128, "unit": "µg/mL"}]}
